For this assay, the target named is human inducible heat shock protein 70 (hHsp70), full-length, non-tagged (human). In words: BLI; biotinylated hHsp70 or DnaK immobilised on streptavidin biosensor tips, analyte in PBS (hHsp70 200-500 nM; hHsp40 20-50 nM; DnaK 200-500 nM), association 600 s, dissociation 600 s, 1:1 model. (In general: In BLI a coated tip is dipped into the sample, and binding shifts an interference pattern.)
Chain of human inducible heat shock protein 70 (hHsp70), full-length, non-tagged (human) (P0DMV8 whole entry E110D): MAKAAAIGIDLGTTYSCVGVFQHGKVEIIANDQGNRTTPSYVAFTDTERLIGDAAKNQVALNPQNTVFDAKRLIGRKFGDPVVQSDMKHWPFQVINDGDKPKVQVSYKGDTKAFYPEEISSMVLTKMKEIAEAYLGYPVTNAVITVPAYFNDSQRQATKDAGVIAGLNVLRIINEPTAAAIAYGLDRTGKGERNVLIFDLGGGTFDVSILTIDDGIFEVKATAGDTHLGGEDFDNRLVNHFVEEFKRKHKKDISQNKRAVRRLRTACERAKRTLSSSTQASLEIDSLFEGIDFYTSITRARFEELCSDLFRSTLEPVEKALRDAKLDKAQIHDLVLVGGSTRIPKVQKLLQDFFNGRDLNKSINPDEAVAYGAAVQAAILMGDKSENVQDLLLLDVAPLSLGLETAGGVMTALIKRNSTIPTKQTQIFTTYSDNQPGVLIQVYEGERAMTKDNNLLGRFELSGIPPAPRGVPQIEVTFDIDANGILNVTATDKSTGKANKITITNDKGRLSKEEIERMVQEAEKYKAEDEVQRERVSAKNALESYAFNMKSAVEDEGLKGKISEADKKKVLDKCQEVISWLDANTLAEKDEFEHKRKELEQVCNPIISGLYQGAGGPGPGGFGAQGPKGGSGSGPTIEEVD

By Kd is commonly meant the equilibrium constant for the complex coming apart. A low value points to tighter binding. On to “human heat shock protein 40 (hHsp40) (from UniProt P25685 1-340) (natural protein)”, for which the Kd was determined as 520 pM. That is a sub-nanomolar value.
